Assays:
[1] = target: Met receptor on MDCK cells (UniProt Q75ZY9 25-1382); assay: cell-based or functional assay
[2] = target: Met receptor on MK keratinocytes (mouse, UniProt P16056 25-1379); assay: cell-based or functional assay

B1: InIB321_Crys (InIB321 G206C A227C C242A, "crystal dimer") (ligand)
chain: ETITVPTPIKQIFSDDAFAETIKDNLKKKSVTDAVTQNELNSIDQIIANNSDIKSVQGIQYLPNVTKLFLNGNKLTDIKPLANLKNLGWLFLDENKVKDLSSLKDLKKLKSLSLEHNGISDINGLVHLPQLESLYLGNNKITDITVLSRLTKLDTLSLEDNQISDIVPLACLTKLQNLYLSKNHISDLRALCGLKNLDVLELFSQEALNKPINHQSNLVVPNTVKNTDGSLVTPEIISDDGDYEKPNVKWHLPEFTNEVSFIFYQPVTIGKAKARFHGRVTQPLKE
modifications: two intermolecular disulfides: Cys 206 of chain A with Cys 227 of chain B and vice versa
cell scattering of MDCK cells, potency relative to HGF and InIBfl [1]: ~2 orders of magnitude | stimulation of DNA synthesis in MK keratinocytes, activity relative to full-length InIB [2]: ~10 fold

— patent publication EP2138508A1 (Helmholtz-Zentrum für Infektionsforschung GmbH, dated 2009)
